# Laboratory results taken from patent US8557777B2, “Methods for treating cancer using prostate specific antigen and tumor endothelial marker peptides” (The Board of Trustees of the University of Illinois, priority 2010, dated 2013).
# Ends that are not written are not given here.
# What was measured:
# patients with CaP [1] = conditions: in vivo
# patients with CaP [2] = test: Toxicity graded by NIH Common Terminology Criteria for Adverse Events v3.0
# HLA-A2 = HLA-A2 (Homo sapiens, UniProt P04439, D140Y/D185E/D98H/E176V/E277Q/G131W/G231S/I119V/I121R/I166T/I218V/L300P/L318F/N151K/N90K/P208A/P217A/Q86G/Q94H/R138H/R169H/T345S); test: T2 binding assay: stabilization of HLA-A2 expression by TEM8 peptides; conditions: for expression of HLA-A2 on T2 cells over baseline levels: baseline T2 + DMSO, TEM8 207-215 10 ug/ml, TEM8 298-306 40 ug/ml (FIG. 9)
# HLA-A201 = target: T1, HLA-A201 (Homo sapiens, UniProt P04439, D140Y/D185E/D98H/E176V/E277Q/G131W/G231S/I119V/I121R/I166T/I218V/L300P/L318F/N151K/N90K/P208A/P217A/Q86G/Q94H/R138H/R169H/T345S); test: Peptide-binding assay on T2 cells (PSA peptide)
# T1 construct: stabilize the expression of HLA-A2 on antigen-processing defective T2 cell line; host or cells: T2 cells
# Description: The antigen-processing defective cell line, T2, was used to assay peptide binding to HLA-A201 as previously detailed [Xue et al., Prostate 30(2): 73-8 (1997)]. Briefly, T2 cells (5×10^5/well) were pulsed with PSA-peptide or DMSO at the designated concentration and cultured in 24-well plates overnight (18 hours) at 37° C. in 5% CO2 atmosphere. HLA-A2 expression was measured by flow cytometry using FITC conjugated anti HLA-A2 antibody (clone BB7.2) from BD Biosciences (San Diego, Calif.).
# [3] = format: physicochemical
# Description: Identified candidate peptides were synthesized (Protein Laboratory, Research Resources Facility, University of Illinois, Chicago) at greater than 95% purity, dissolved in dimethylsulphoxide (DMSO) at a concentration of 5 mg/ml and stored at −20° C. Peptides were tested for their ability to stabilize the expression of HLA-A2 on antigen-processing defective T2 cell line (ATCC, Manassas, Va.) as previously described [Xue et al., Prostate 1997; 30:73-78]. Briefly, 5×10^5 T2 cells in RPMI 1640 medium containing 10% fetal bovine serum (BioWhitaker, Walkersville, Md.) were incubated with varying amounts (1 to 80 ug/ml) of TEM8 peptide or control HIV-RT476-484 peptide, and cultured in 24 well plates for 18 hours at 37° C. HLA-A2 expression was visualized by direct staining with FITC conjugated MA2.1 antibody or an isotype control (BD Biosciences, San Diego, Calif.) followed by analysis on a FC500 flow cytometer (Beckman Coulter, Miami, Fla.).
# TEM8 is known to share 60% sequence homology within the extracellular integrin-like-I domain region with another protein called capillary morphogenesis protein 2 (CMG2) that is widely expressed in normal tissues [Chen et al., J Biol. Chem. 2007 Mar. 30; 282(13):9834-45. Epub 2007 Jan 24]. […] Three remaining peptides were tested in T2 binding assays. […]
Compound,T2 binding (HLA-A2),expression of HLA-A2 on T2 cells over baseline levels (HLA-A2),other results
CC(C)C[C@H](NC(=O)[C@H](CC(=O)O)NC(=O)[C@@H](NC(=O)[C@H](CS)NC(=O)[C@H](CCC(N)=O)NC(=O)[C@H](CC(C)C)NC(=O)[C@@H](N)CCCCN)C(C)C)C(=O)N[C@@H](Cc1c[nH]cn1)C(=O)N[C@H](C(=O)O)C(C)C [PSA146-154 peptide],–,–,"treatment related grade 3/4 toxicities (patients with CaP [1]): no treatment related grade 3/4 toxicities; late safety (patients with CaP [2]; after six to eight years of monitoring): no late safety concerns or deleterious sequelae; reactions at the site of injection (patients with CaP [2]; all patients under protocol-1 (intradermal peptide + GM-CSF)): Mild pain, itching, and erythema with or without induration"
"CALPERPSLYTKVVHYRKWIK [PSA210-230 peptide, long chain synthetic peptide corresponding to PSA residues 210-230]",–,–,HLA-A201 binding capacity (HLA-A201): binds with high affinity in a concentration dependent fashion
FLLLALALL [TEM8 331-339],–,–,solubility in DMSO [3]: insoluble in DMSO
"SMNDGLSFI [TEM8 298-306, 9-mer HLA-A0201 peptide of Tumor Endothelial Marker-8]",Yes,showed enhanced expression of HLA-A2 over baseline levels,–

# Second part, led by results:
T2 binding (HLA-A2),Compound,expression of HLA-A2 on T2 cells over baseline levels (HLA-A2),other results
Yes,"ALQGIIHSI [TEM8 207-215, 9-mer HLA-A0201 peptide of Tumor Endothelial Marker-8]",showed enhanced expression of HLA-A2 over baseline levels,binding affinity in comparison to HIV-RT 476-484 (HLA-A2; control HLA-0201 binding peptide): greater binding affinity
No,"TLNEKPFSV [TEM8 266-274, 9-mer HLA-A0201 peptide of Tumor Endothelial Marker-8]",did not,–
